Assay results taken from patent US20040052796A1.

Target: p185HER-2 (HER-2/neu, erbB-2 receptor tyrosine kinase) (human) (UniProt P04626)
Assay: method not described; binding to cell surface p185HER-2 (statement in the summary)

## p68HER-2 (herstatin), product of the alternative HER-2 transcript with retained intron 8 (ligand)
  Kd: 14 nM
